Key:
[1] = biological target: T1, soluble CD73 in human serum/peripheral blood (human, UniProt P21589 27-549, limits assumed); experiment: MSD ECL sandwich immunoassay, 6E11 as capture
T1 construct: also called sCD73; free soluble CD73
T1 sequence (looked up): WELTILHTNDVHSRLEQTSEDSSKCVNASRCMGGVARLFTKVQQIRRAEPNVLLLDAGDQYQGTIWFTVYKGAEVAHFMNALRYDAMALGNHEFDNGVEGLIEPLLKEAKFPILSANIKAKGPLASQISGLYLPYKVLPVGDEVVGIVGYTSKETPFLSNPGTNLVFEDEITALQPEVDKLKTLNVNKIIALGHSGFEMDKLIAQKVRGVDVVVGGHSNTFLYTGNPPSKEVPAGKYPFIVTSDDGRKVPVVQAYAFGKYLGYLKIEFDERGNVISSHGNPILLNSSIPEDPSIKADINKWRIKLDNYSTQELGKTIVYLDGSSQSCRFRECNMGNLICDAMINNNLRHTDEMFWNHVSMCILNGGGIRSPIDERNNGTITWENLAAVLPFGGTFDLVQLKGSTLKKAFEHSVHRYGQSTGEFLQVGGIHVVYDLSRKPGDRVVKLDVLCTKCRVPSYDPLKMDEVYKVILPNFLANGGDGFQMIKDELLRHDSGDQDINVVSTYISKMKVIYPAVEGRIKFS
Method: (§1) The free sCD73 assay utilizes biotinylated anti-CD73 antibody 6E11 (SEQ ID NOs: 28 and 29) to capture drug-unbound sCD73 from the test samples (as it competes with CD73.A for binding to hCD73). MSD Streptavidin Gold assay plates were coated overnight at 2 to 8° C. with 50 μL/well of biotinylated 6E11 diluted to a final concentration of 0.5 μg/mL in 1× DPBS buffer. The following day, the wells were washed using PBS with 0.05% Tween 20 and 0.5× StabilCoat prepared in water was added to wells at 100 μL per well and incubated at room temperature for one hour. Wells were then aspirated and plates were dried and pouched with desiccant. Test samples drawn from study animals were kept frozen at −70° C. […] Bound sCD73 was subsequently detected using ruthenylated anti-CD73 antibody 4C3 (SEQ ID NOs: 38 and 39) (previously prepared with 0.1% Proclin 300 at working concentration) at a final concentration of 0.125 μg/ml in Starting Block (PBS) at 50 μL per well. The plates were incubated for one hour at 25° C. with shaking, at about 500 rpm, and then washed again before adding 1× MSD Read Buffer prepared in water and then read on MSD Sector Imager 600 by electrochemiluminescenece (ECL) technology. […] Test samples were quantified using a 4-parameter logistic fit regression model.

[2] = biological target: T1, soluble CD73 in human serum/peripheral …; experiment: free (not bound by CD73.A) sCD73 ECL immunoassay on patient samples
Method: as §1

[3] = biological target: T2, cynomolgus CD73 (in cell lines) (cynomolgus monkey, UniProt A0A2K5V5U7 27-549); experiment: CD73 binding in cell lines (cyno), median EC50; method not stated
T2 construct: whole, on cells; also called Cyno CD73
T2 sequence: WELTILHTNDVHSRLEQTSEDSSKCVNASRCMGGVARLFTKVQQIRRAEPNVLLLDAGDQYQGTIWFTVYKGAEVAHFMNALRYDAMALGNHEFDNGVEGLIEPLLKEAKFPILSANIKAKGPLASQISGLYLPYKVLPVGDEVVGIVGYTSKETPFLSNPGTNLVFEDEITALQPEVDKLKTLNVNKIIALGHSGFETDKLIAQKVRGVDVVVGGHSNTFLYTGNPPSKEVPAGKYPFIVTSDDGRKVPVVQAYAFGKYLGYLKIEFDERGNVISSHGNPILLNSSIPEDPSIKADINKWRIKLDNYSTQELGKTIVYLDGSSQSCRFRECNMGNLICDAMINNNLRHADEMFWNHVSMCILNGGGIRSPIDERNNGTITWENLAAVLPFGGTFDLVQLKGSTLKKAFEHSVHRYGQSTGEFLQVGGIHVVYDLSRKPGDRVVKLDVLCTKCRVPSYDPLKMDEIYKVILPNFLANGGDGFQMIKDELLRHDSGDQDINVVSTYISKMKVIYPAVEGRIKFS

Binder	binding result [1]	binding result [2]	EC50 [3] [nM]
anti-CD73 antibody 6E11 (antibody, human IgG1, kappa, V domains shown, biotinylated (sites not given), Used as the biotinylated capture reagent on streptavidin plates; also called biotinylated 6E11) VH: EVQLVESGGALVQPGRSLRLSCAASGFTFDDYAMHWVRQAPGKGLEWVSGITWNSGGIGYADSVKGRFTISRDNAKNSLYLQMNSLRAEDTALYYCAKDRYYSSWLLFDNWGQGILVTVSS VL: not shown	binds		
CD73.4-IgG2C219S.IgG1.1f (antibody, V domains shown, IgG2 CH1/hinge (C219S) with IgG1.1f CH2/CH3 hybrid constant region; also called CD73.A; CD73.4-IgG2CS-IgG1.1f) VH: QVQLVESGGGVVQPGRSLRLSCAASGFTFSNYGMHWVRQAPGKGLEWVAVILYDGSNKYYPDSVKGRFTISRDNSKNTLYLQMNSLRAEDTAVYYCARGGSSWYPDSFDIWGQGTMVTVSS VL: DIQMTQSPSSLSASVGDRVTITCRASQGISSWLAWYQQKPEKAPKSLIYAASSLQSGVPSRFSGSGSGTDFTLTISSLQPEDFATYYCQQYNSYPLTFGGGTKVEIKR		binds	0.3
